Measurements published in the Immune Epitope Database (IEDB).

molecular target: HLA-A*02:01; experiment: IEDB peptide-MHC binding, purified MHC/competitive/radioactivity; ≥ and ≤ were set here for values at or beyond the usual limits of such assays; conditions: source organism: Mycobacterium tuberculosis H37Rv

Row | Sequence | IC50 [µM]
1 | ALLALTRAI | 0.42
2 | AYGSFVRTV | 13
3 | ELAAEPTEV | 1.8
4 | GLWLSVAAV | 0.11
5 | GSFVRTVSL | 59
6 | HVYAHQAQT | 5.5
7 | LTRAILIRV | 53
8 | QAQTRHPAT | ≥ 250
9 | RTVSLPVGA | 2.5
10 | TEVGQDQYV | ≥ 250
